Test results published in patent US20260347399A1, “BRAIN PENETRATING PEPTIDES AND METHODS OF USE” (priority 2022, published 2026).

Key:
[1] = biological target: T1, NRP-1 (Homo sapiens, UniProt O14786); assay: Peptide-phage binding on ELISA plate
T1 sequence (O14786 273-586 limits assumed): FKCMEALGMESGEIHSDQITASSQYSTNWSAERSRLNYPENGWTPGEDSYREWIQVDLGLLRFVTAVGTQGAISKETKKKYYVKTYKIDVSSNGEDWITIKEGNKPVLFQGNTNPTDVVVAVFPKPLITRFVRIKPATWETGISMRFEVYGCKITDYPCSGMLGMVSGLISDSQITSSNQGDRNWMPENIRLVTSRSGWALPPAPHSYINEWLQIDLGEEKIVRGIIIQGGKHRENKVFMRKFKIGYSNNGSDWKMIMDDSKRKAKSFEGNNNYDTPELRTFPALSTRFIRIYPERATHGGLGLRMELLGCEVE
Method: (§1) Reelin protein (#8546-MR-050; R&D Systems), NRP-1 b1b2 (wt and mutant) or 5% BSA was immobilized on Costar 96-Well ELISA plate (#3590, Corning Life Sciences, Tewksbury, MA, USA). The multiwell plates were coated with 20 μg/ml recombinant protein in 100 μl of PBS overnight at +4 °C, followed by blocking with 1% bovine serum albumin (BSA) in PBS overnight at +4 °C. The phage (5×10^8 pfu in 100 μl of PBS-BSA) was incubated overnight at +4 °C, followed by 6 washes with PBS containing 1% BSA and 0.1% Tween-20 (washing buffer) to remove background phages. BLT5615 OD600=0.5 containing 2 mM IPTG was used to recover the phages and determine the titer of samples.
(§2) Next, an affinity chromatography was performed to identify a receptor of the CVGTNCY (SEQ ID NO:2), and selected a receptor candidate, which is a secreted extracellular matrix protein Reelin. CVGTNCY (SEQ ID NO:2) binding to Reelin protein was tested by cell free method on ELISA plate. Recombinant human Reelin protein (Ser1221-Gln2666; 163 kDa) was used to coat the ELISA plate and the CVGTNCY (SEQ ID NO:2) peptide-phage was allowed to bind to it. After several washes, the titer of the experiment was determined to rate on the binding efficiency.
(§3) Reelin was identified from affinity chromatography proteomics data. […] The binding efficiency was evaluated based on the titer (PFU/ml) of each sample. […]

[2] = biological target: T2, mutant NRP1 (Homo sapiens, UniProt O14786); assay: Peptide-phage binding on ELISA plate
T2 sequence (O14786 273-586 limits assumed): T1 sequence (O14786 273-586 limits assumed)
Method: as §1, §2, §3

binding to NRP-1 [1]: no binding was detected
binding to mutant NRP1 [2]: no binding was detected
Substance: CVGTNCY
